Columns and labels:
[1] = target: T1, FLT-1 IgG (UniProt P17948 27-758); experiment: competition with 125I-VEGF165 for FLT-1-IgG, radioligand plate assay
T1 construct: Construct only cited from Park et al. 1994; also called FLT-IgG; FLT-1 receptor-IgG chimera; not shown: IgG part of the chimera (captured by anti-human IgG Fc)
Protocol: (§1) After the supernatant was discarded, the wells were washed three times in washing buffer (0.01% Tween 80 in PBS). The plate was blocked (300 µl/well) for one hr in assay buffer (0.5% BSA, 0.03% Tween 80, 0.01% Thimerosal in PBS). The supernatant was discarded and the wells were washed. […] Aliquots of this solution (100 µl) were added to pre-coated microtiter plates and incubated for 4 hr at ambient temperature with gentle agitation. The supernatant was discarded, the plate washed, and individual microtiter wells were counted by gamma scintigraphy (LKB model 1277).

[2] = target: T1, FLT-1 IgG; experiment: competition with 125I-VEGF165 for FLT-1-IgG, radioligand plate assay, no heparin
Protocol: as §1

[3] = target: T1, FLT-1 IgG; experiment: competition with 125I-VEGF165 for FLT-1-IgG, radioligand plate assay; remark: listed apart in the source
Protocol: as §1

[4] = target: T2, KDR-IgG (UniProt P35968 20-764); experiment: competition with 125I-VEGF165 for KDR-IgG, radioligand plate assay, no heparin
T2 construct: Construct only cited from Park et al. 1994; also called KDR receptor-IgG chimera; soluble KDR; not shown: IgG part of the chimera (captured by anti-human IgG Fc)
T2 sequence (P35968 20-764): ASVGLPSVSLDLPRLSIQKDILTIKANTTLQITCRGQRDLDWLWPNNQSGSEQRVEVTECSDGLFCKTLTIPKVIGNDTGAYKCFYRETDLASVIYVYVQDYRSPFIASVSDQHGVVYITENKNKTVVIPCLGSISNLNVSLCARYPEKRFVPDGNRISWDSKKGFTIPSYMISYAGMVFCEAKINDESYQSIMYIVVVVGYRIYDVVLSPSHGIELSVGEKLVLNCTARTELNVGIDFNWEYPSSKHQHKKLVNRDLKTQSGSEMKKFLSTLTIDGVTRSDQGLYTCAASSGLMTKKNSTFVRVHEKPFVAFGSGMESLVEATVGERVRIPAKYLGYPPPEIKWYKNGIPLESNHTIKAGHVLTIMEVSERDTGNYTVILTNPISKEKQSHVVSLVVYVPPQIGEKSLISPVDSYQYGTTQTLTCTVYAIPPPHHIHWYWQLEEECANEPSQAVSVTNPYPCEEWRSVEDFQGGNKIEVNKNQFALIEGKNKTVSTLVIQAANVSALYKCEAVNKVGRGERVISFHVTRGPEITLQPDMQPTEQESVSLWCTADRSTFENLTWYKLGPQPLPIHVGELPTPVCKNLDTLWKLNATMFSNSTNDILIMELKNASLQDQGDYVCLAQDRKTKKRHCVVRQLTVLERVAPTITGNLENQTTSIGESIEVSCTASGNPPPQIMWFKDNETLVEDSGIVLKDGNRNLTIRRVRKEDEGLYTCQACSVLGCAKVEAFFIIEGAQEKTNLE
Protocol: as §1
In addition to the specific amino acid substitutions, the table indicates the mean residue number for the position of the mutation(s). For a given mutant, this number is the average of the altered positions.

T1 sequence (P17948 27-758): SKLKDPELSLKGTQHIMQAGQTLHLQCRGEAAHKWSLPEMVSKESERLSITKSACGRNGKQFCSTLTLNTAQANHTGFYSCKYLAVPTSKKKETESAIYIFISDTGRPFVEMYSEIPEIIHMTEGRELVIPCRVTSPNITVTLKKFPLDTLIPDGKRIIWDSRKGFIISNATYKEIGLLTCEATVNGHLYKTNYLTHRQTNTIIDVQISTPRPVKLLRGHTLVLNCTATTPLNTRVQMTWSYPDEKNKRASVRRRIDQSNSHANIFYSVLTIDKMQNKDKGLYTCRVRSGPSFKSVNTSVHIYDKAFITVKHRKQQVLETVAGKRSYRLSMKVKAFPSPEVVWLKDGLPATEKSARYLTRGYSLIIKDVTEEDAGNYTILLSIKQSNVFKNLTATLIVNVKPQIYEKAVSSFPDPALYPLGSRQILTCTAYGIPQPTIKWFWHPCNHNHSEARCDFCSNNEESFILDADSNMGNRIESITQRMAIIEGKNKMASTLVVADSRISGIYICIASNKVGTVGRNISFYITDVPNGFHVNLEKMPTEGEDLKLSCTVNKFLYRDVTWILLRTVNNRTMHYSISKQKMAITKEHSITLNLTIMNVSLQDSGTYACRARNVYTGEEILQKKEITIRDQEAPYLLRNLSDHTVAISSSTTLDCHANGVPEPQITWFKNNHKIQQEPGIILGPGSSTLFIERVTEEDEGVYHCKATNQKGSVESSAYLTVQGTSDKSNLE

| IC50 [1] [ng/mL] | IC50 [2] [pM] | IC50 [3] [ng/mL] | IC50 [4] [pM] | Binder |
| --- | --- | --- | --- | --- |
| 0.87 | 15 | – | – | E38A VEGF (ligand, VEGF165 mutant from 293 cells, conditioned medium) APMAEGGGQNHHEVVKFMDVYQRSYCHPIETLVDIFQAYPDEIEYIFKPSCVPLMRCGGCCNDEGLECVPTEESNITMQIMRIKPHQGQHIGEMSFLQHNKCECRPKKDRARQENPCGPCSERRKHLFVQDPQTCKCSCKNTDSRCKARQLELNERTCRCDKPRR |
| 0.077 | 26 | – | – | H90A, E93A VEGF (ligand, VEGF165 mutant from 293 cells, conditioned medium; also called H9OA, E93A) APMAEGGGQNHHEVVKFMDVYQRSYCHPIETLVDIFQEYPDEIEYIFKPSCVPLMRCGGCCNDEGLECVPTEESNITMQIMRIKPHQGQAIGAMSFLQHNKCECRPKKDRARQENPCGPCSERRKHLFVQDPQTCKCSCKNTDSRCKARQLELNERTCRCDKPRR |
| 2.42 | 54 | – | – | KKDR(107-110)AAAA VEGF (ligand, VEGF165 mutant from 293 cells, conditioned medium; also called K107A, K108A, D109A, R110A) APMAEGGGQNHHEVVKFMDVYQRSYCHPIETLVDIFQEYPDEIEYIFKPSCVPLMRCGGCCNDEGLECVPTEESNITMQIMRIKPHQGQHIGEMSFLQHNKCECRPAAAAARQENPCGPCSERRKHLFVQDPQTCKCSCKNTDSRCKARQLELNERTCRCDKPRR |
| – | – | 1.9 | – | E64S VEGF (ligand, preparation not described further) APMAEGGGQNHHEVVKFMDVYQRSYCHPIETLVDIFQEYPDEIEYIFKPSCVPLMRCGGCCNDSGLECVPTEESNITMQIMRIKPHQGQHIGEMSFLQHNKCECRPKKDRARQENPCGPCSERRKHLFVQDPQTCKCSCKNTDSRCKARQLELNERTCRCDKPRR |
| 1.33 | 30 | – | – | H99A, K101A VEGF (ligand, VEGF165 mutant from 293 cells, conditioned medium) APMAEGGGQNHHEVVKFMDVYQRSYCHPIETLVDIFQEYPDEIEYIFKPSCVPLMRCGGCCNDEGLECVPTEESNITMQIMRIKPHQGQHIGEMSFLQANACECRPKKDRARQENPCGPCSERRKHLFVQDPQTCKCSCKNTDSRCKARQLELNERTCRCDKPRR |
| 0.62 | 20 | – | – | H11A, H12A, E13A VEGF (ligand, VEGF165 mutant from 293 cells, conditioned medium) APMAEGGGQNAAAVVKFMDVYQRSYCHPIETLVDIFQEYPDEIEYIFKPSCVPLMRCGGCCNDEGLECVPTEESNITMQIMRIKPHQGQHIGEMSFLQHNKCECRPKKDRARQENPCGPCSERRKHLFVQDPQTCKCSCKNTDSRCKARQLELNERTCRCDKPRR |
| – | 22 | – | – | E5A VEGF (ligand, VEGF165 mutant from 293 cells, conditioned medium) APMAAGGGQNHHEVVKFMDVYQRSYCHPIETLVDIFQEYPDEIEYIFKPSCVPLMRCGGCCNDEGLECVPTEESNITMQIMRIKPHQGQHIGEMSFLQHNKCECRPKKDRARQENPCGPCSERRKHLFVQDPQTCKCSCKNTDSRCKARQLELNERTCRCDKPRR |
| 2.94 | 66 | – | – | K107A, K108A VEGF (ligand, VEGF165 mutant from 293 cells, conditioned medium) APMAEGGGQNHHEVVKFMDVYQRSYCHPIETLVDIFQEYPDEIEYIFKPSCVPLMRCGGCCNDEGLECVPTEESNITMQIMRIKPHQGQHIGEMSFLQHNKCECRPAADRARQENPCGPCSERRKHLFVQDPQTCKCSCKNTDSRCKARQLELNERTCRCDKPRR |
| – | 28 | – | – | E30A VEGF (ligand, VEGF165 mutant from 293 cells, conditioned medium) APMAEGGGQNHHEVVKFMDVYQRSYCHPIATLVDIFQEYPDEIEYIFKPSCVPLMRCGGCCNDEGLECVPTEESNITMQIMRIKPHQGQHIGEMSFLQHNKCECRPKKDRARQENPCGPCSERRKHLFVQDPQTCKCSCKNTDSRCKARQLELNERTCRCDKPRR |

The remaining lines, values behind:

| Binder | IC50 [1] [ng/mL] | IC50 [2] [pM] | IC50 [3] [ng/mL] | IC50 [4] [pM] |
| --- | --- | --- | --- | --- |
| D34A VEGF (ligand, VEGF165 mutant from 293 cells, conditioned medium) APMAEGGGQNHHEVVKFMDVYQRSYCHPIETLVAIFQEYPDEIEYIFKPSCVPLMRCGGCCNDEGLECVPTEESNITMQIMRIKPHQGQHIGEMSFLQHNKCECRPKKDRARQENPCGPCSERRKHLFVQDPQTCKCSCKNTDSRCKARQLELNERTCRCDKPRR | 0.59 | 11 | – | – |
| purified CHO-derived VEGF165 (ligand, Homodimer; also called VEGF (CHO cell); wildtype VEGF165 derived from CHO cells) APMAEGGGQNHHEVVKFMDVYQRSYCHPIETLVDIFQEYPDEIEYIFKPSCVPLMRCGGCCNDEGLECVPTEESNITMQIMRIKPHQGQHIGEMSFLQHNKCECRPKKDRARQENPCGPCSERRKHLFVQDPQTCKCSCKNTDSRCKARQLELNERTCRCDKPRR | 0.95 | 19 | 0.95 | – |
| D63A, E64A, E67A VEGF (ligand, VEGF165 mutant from 293 cells, conditioned medium) APMAEGGGQNHHEVVKFMDVYQRSYCHPIETLVDIFQEYPDEIEYIFKPSCVPLMRCGGCCNAAGLACVPTEESNITMQIMRIKPHQGQHIGEMSFLQHNKCECRPKKDRARQENPCGPCSERRKHLFVQDPQTCKCSCKNTDSRCKARQLELNERTCRCDKPRR | – | 780 | 44.6 | – |
| E72A, E73A VEGF (ligand, VEGF165 mutant from 293 cells, conditioned medium) APMAEGGGQNHHEVVKFMDVYQRSYCHPIETLVDIFQEYPDEIEYIFKPSCVPLMRCGGCCNDEGLECVPTAASNITMQIMRIKPHQGQHIGEMSFLQHNKCECRPKKDRARQENPCGPCSERRKHLFVQDPQTCKCSCKNTDSRCKARQLELNERTCRCDKPRR | 0.91 | 30 | – | – |
| R105A VEGF (ligand, VEGF165 mutant from 293 cells, conditioned medium) APMAEGGGQNHHEVVKFMDVYQRSYCHPIETLVDIFQEYPDEIEYIFKPSCVPLMRCGGCCNDEGLECVPTEESNITMQIMRIKPHQGQHIGEMSFLQHNKCECAPKKDRARQENPCGPCSERRKHLFVQDPQTCKCSCKNTDSRCKARQLELNERTCRCDKPRR | 1.57 | 38 | – | – |
| E67A VEGF (ligand, VEGF165 mutant from 293 cells, conditioned medium) APMAEGGGQNHHEVVKFMDVYQRSYCHPIETLVDIFQEYPDEIEYIFKPSCVPLMRCGGCCNDEGLACVPTEESNITMQIMRIKPHQGQHIGEMSFLQHNKCECRPKKDRARQENPCGPCSERRKHLFVQDPQTCKCSCKNTDSRCKARQLELNERTCRCDKPRR | – | 8 | 0.47 | – |
| E42N, E44S VEGF (ligand, N-linked carbohydrate at position 42 (apparently glycosylated), Neo-glycosylation control mutant from 293 cells, conditioned medium) APMAEGGGQNHHEVVKFMDVYQRSYCHPIETLVDIFQEYPDNISYIFKPSCVPLMRCGGCCNDEGLECVPTEESNITMQIMRIKPHQGQHIGEMSFLQHNKCECRPKKDRARQENPCGPCSERRKHLFVQDPQTCKCSCKNTDSRCKARQLELNERTCRCDKPRR | 0.77 | 13 | – | – |
| E103A VEGF (ligand, VEGF165 mutant from 293 cells, conditioned medium) APMAEGGGQNHHEVVKFMDVYQRSYCHPIETLVDIFQEYPDEIEYIFKPSCVPLMRCGGCCNDEGLECVPTEESNITMQIMRIKPHQGQHIGEMSFLQHNKCACRPKKDRARQENPCGPCSERRKHLFVQDPQTCKCSCKNTDSRCKARQLELNERTCRCDKPRR | 0.74 | 17 | – | – |
| R82A, K84A, H86A VEGF (ligand, VEGF165 mutant from 293 cells, conditioned medium; also called R82A, K84A, H86 VEGF) APMAEGGGQNHHEVVKFMDVYQRSYCHPIETLVDIFQEYPDEIEYIFKPSCVPLMRCGGCCNDEGLECVPTEESNITMQIMAIAPAQGQHIGEMSFLQHNKCECRPKKDRARQENPCGPCSERRKHLFVQDPQTCKCSCKNTDSRCKARQLELNERTCRCDKPRR | – | 48 | 1.7 | – |
| D41A VEGF (ligand, VEGF165 mutant from 293 cells, conditioned medium) APMAEGGGQNHHEVVKFMDVYQRSYCHPIETLVDIFQEYPAEIEYIFKPSCVPLMRCGGCCNDEGLECVPTEESNITMQIMRIKPHQGQHIGEMSFLQHNKCECRPKKDRARQENPCGPCSERRKHLFVQDPQTCKCSCKNTDSRCKARQLELNERTCRCDKPRR | – | 22 | – | – |
| D109A, R110A VEGF (ligand, VEGF165 mutant from 293 cells, conditioned medium) APMAEGGGQNHHEVVKFMDVYQRSYCHPIETLVDIFQEYPDEIEYIFKPSCVPLMRCGGCCNDEGLECVPTEESNITMQIMRIKPHQGQHIGEMSFLQHNKCECRPKKAAARQENPCGPCSERRKHLFVQDPQTCKCSCKNTDSRCKARQLELNERTCRCDKPRR | 1.42 | 35 | – | 30 |
| K84A VEGF (ligand, VEGF165 mutant from 293 cells, conditioned medium) APMAEGGGQNHHEVVKFMDVYQRSYCHPIETLVDIFQEYPDEIEYIFKPSCVPLMRCGGCCNDEGLECVPTEESNITMQIMRIAPHQGQHIGEMSFLQHNKCECRPKKDRARQENPCGPCSERRKHLFVQDPQTCKCSCKNTDSRCKARQLELNERTCRCDKPRR | – | 24 | 1.91 | – |
| N75A VEGF (ligand, Unglycosylated form of VEGF from 293 cells, conditioned medium) APMAEGGGQNHHEVVKFMDVYQRSYCHPIETLVDIFQEYPDEIEYIFKPSCVPLMRCGGCCNDEGLECVPTEESAITMQIMRIKPHQGQHIGEMSFLQHNKCECRPKKDRARQENPCGPCSERRKHLFVQDPQTCKCSCKNTDSRCKARQLELNERTCRCDKPRR | 1.26 | 22 | – | – |
| R82A VEGF (ligand, VEGF165 mutant from 293 cells, conditioned medium) APMAEGGGQNHHEVVKFMDVYQRSYCHPIETLVDIFQEYPDEIEYIFKPSCVPLMRCGGCCNDEGLECVPTEESNITMQIMAIKPHQGQHIGEMSFLQHNKCECRPKKDRARQENPCGPCSERRKHLFVQDPQTCKCSCKNTDSRCKARQLELNERTCRCDKPRR | – | 20 | 1.23 | – |
